We go through two molecules from article PMC10303687 (2023).

The term Kd denotes the equilibrium constant for the complex coming apart. High values mean weaker binding, low ones tighter binding.

Common to all, as to assay: stopped flow koff/kon 10 C
For one test, the target named is T1, p53_Gg (Gallus gallus (Chicken), UniProt P10360).
T1 chain: EPTEVFMDLWSML

The target in another test is T2, p63_Dr (zebrafish, UniProt E9QG65).
T2 chain: GQDVLNQLLEML

For the next test, the target named is T3, p73_Dr (zebrafish, UniProt A0A8M2BER5).
T3 chain: EGPTFEHLWSTL

For a further test, the target named is T4, p53_Dr (Danio rerio (Zebrafish) (Brachydanio …, UniProt P79734)).
T4 chain: DSQEFAELWEKNL

B1: MDM2_Gg (protein)
chain: SPVSASEQEALVKPKPLLLKLLKLAGAEKDTFTMKEVIFYLGQYIMSKQLYDEKEQHIVHCANDLLGDLFGVTSFSVKEHRRIYSMISRNLIAIN
For the molecule B1, the Kd with p53_Gg amounted to 0.09 µM.

B2: MDM2_Dr (protein)
chain: SQISKVDNEKLVRPKVQLKSLLEDAGADKDVFTMKEVMFYLGKYIMSKELYDKQQQHIVHCGEDPLGAVLGVKSFSVKEPRALFALINRNLVTVK
Regarding B2, the figures for the dissociation constant Kd with p63_Dr, with p73_Dr and with p53_Dr were 130 µM, 0.12 µM and 1.9 µM, respectively.
